According to US20230391861A1 (Stanford University, published 2023):
Positions count from the first letter of the chain named.

B1: T23 nanobody (VHH)
VHH: QVQLQESGGGLVQAGGSLRLSCAASGNIFAYYIMGWYRQAPGKERELVATIDIGGNTNYADSVKGRFTISRDNAKNTVYLQMNSLKPEDTAVYYCAVQAVPYRYRRYWGQGTQVTVSS
notes: also called 23T
B2: TI23 nanobody (VHH)
VHH: B1 VHH with T77N, Y102I
B3: Nanobody clone 23 (VHH)
VHH: B1 VHH with T50G, R105H, R106G
notes: Initial clone from the synthetic yeast display library; also called Nb23; NB23

Columns and labels:
[1] = target: T1, PTCH1 on NIH-3T3 / 3T3-Light2 cells (UniProt Q61115 1-1434, limits assumed); assay: cell-based or functional assay
T1 sequence (looked up): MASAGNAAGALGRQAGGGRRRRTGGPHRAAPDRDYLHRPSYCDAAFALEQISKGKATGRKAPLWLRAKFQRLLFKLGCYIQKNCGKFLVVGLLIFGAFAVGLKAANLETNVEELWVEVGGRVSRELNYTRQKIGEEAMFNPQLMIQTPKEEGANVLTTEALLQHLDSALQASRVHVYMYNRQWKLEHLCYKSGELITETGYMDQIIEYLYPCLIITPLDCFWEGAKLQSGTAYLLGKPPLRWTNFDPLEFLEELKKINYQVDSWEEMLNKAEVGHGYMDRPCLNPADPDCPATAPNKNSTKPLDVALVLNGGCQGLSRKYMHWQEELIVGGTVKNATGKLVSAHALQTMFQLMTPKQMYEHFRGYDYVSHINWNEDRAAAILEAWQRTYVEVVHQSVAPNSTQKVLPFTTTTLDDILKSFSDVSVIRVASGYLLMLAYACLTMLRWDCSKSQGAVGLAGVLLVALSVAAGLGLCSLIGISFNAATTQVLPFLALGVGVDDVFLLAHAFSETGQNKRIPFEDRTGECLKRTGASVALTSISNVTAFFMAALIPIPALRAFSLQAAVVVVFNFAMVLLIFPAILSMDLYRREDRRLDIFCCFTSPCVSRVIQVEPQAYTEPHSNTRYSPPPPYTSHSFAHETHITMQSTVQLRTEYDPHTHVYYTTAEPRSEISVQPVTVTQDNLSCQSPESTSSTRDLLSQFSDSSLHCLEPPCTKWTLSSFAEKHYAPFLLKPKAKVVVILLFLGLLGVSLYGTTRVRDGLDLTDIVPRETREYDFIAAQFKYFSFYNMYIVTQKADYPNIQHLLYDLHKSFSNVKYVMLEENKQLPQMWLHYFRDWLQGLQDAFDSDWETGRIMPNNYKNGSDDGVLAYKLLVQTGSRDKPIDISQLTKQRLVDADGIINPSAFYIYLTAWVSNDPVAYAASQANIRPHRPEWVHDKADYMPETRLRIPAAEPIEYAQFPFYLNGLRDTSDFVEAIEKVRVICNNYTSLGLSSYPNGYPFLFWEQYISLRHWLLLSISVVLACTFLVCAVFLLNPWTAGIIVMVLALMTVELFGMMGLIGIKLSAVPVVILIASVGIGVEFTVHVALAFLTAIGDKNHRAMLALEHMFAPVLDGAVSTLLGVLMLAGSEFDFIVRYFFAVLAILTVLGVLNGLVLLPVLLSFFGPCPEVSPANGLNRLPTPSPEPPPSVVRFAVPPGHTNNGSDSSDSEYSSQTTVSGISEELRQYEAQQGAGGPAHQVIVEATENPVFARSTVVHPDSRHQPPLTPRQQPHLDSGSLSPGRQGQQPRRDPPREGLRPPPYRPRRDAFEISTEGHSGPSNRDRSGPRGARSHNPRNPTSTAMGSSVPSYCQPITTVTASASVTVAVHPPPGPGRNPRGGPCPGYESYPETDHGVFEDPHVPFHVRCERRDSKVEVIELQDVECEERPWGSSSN

[2] = target: T2, Ptch1-C-NNQ (Ptch1-C with D499N, D500N, E1081Q) (mouse, UniProt Q61115 1-618; Q61115 712-1173); assay: two-color staining of yeast cells expressing the variants
T2 construct: range 1-618;range 712-1173; also called PTCH1-NNQ; NNQ variant; not shown: 1D4 tag
T2 sequence (looked up): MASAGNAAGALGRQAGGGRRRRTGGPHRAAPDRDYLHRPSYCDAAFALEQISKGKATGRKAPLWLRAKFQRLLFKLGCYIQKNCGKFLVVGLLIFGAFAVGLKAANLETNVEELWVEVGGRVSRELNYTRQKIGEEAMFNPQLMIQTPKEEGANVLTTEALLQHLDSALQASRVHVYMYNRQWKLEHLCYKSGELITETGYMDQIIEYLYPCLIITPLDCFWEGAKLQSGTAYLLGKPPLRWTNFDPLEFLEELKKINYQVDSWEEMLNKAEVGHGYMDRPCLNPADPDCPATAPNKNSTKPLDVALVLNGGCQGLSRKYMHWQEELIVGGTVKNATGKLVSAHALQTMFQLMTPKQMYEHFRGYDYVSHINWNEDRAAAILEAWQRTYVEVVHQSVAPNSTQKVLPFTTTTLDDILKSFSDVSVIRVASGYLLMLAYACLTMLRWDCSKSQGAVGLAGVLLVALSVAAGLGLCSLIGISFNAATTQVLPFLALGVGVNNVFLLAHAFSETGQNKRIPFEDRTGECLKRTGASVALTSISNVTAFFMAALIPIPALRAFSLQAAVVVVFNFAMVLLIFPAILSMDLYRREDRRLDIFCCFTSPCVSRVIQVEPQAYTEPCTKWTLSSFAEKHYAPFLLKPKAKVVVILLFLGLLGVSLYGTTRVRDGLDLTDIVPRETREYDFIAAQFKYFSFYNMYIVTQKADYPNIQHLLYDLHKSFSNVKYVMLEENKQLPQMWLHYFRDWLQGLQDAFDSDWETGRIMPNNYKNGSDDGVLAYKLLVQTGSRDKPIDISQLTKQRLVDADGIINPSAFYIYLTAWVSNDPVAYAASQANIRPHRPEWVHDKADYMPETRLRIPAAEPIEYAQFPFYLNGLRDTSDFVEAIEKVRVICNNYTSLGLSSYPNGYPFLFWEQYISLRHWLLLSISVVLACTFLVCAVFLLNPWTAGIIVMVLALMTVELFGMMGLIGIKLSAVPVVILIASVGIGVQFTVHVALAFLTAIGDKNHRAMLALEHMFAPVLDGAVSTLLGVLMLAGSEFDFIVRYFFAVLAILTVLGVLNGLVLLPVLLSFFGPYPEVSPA

[3] = target: T3, Human PTCH1 on HEPM cells (human, UniProt Q13635 1-1447); assay: cell-based or functional assay
T3 sequence (looked up): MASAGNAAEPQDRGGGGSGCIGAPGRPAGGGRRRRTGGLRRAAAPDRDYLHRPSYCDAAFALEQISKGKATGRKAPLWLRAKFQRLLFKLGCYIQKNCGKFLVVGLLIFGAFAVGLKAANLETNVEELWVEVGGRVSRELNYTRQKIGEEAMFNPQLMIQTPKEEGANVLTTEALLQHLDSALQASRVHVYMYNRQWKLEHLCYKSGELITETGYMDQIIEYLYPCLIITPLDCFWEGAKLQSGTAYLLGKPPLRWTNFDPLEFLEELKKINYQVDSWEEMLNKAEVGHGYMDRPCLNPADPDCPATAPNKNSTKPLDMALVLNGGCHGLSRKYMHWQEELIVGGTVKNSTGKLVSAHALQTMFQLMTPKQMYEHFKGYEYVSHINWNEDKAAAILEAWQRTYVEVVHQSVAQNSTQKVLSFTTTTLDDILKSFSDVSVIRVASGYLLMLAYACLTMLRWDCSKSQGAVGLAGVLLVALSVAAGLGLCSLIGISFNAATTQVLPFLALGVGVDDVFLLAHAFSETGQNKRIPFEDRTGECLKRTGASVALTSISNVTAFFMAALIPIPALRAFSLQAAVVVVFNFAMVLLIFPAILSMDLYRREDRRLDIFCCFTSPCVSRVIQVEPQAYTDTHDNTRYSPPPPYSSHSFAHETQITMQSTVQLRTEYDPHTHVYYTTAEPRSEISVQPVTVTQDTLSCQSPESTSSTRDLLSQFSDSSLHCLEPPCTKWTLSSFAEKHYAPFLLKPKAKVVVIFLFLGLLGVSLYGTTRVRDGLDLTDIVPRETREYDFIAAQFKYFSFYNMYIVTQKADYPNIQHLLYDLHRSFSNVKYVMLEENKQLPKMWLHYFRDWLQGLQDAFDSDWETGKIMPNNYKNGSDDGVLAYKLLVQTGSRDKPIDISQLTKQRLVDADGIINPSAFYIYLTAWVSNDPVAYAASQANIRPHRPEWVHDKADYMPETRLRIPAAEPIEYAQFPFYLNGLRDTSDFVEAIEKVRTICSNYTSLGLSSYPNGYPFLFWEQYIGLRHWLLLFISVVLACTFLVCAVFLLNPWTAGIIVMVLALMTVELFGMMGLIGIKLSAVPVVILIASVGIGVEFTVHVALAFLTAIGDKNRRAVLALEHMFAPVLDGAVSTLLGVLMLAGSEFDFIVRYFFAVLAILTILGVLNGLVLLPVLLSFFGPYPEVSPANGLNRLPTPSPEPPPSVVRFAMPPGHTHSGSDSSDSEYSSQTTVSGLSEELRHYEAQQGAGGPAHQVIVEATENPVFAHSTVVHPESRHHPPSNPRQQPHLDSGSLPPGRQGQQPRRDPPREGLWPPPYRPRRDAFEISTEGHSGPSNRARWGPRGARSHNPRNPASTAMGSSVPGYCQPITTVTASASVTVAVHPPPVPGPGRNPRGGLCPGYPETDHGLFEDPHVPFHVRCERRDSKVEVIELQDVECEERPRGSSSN

Molecule | EC50, Gli-luciferase assay in NIH-3T3 cells [1] | binding result [2] | other results
ShhNp (ligand) | 1.4 nM |  | 
B1 |  | binds | 
B2 | 6.9 nM |  | EC50, transcription of GLI1 in HEPM cells (qPCR) [3]: 16 nM; EC50, transcription of PTCH1 in HEPM cells (qPCR) [3]: 18.5 nM; EC50, Gli-dependent luciferase reporter in 3T3 cells [1]: 8.6 nM; maximum response relative to ShhNp, Gli-luciferase assay [1]: ~75%
B3 |  | binds | 
